How the values were obtained:
[1] = system: ZFP7264 (host, center linker TGSQKP) (artificial); experiment: ELONA
[2] = system: ZFP7264 linker TGGGGSQKP center linker F2-F3 TGSQKP replaced by TGGGGSQKP (artificial); experiment: ELONA; conditions: normalized ELISA score
[3] = system: ZFP7264 linker TGEGGKP center linker F2-F3 TGSQKP replaced by TGEGGKP (artificial); experiment: ELONA; conditions: normalized ELISA score
[4] = system: ZFP7264 linker TKHGTPKHREDKP center linker F2-F3 TGSQKP replaced by TKHGTPKHREDKP (artificial); experiment: ELONA; conditions: normalized ELISA score
[5] = system: ZFP7264 linker TLPLPRPKP center linker F2-F3 TGSQKP replaced by TLPLPRPKP (artificial); experiment: ELONA; conditions: normalized ELISA score
[6] = system: ZFP7264 linker TGLPKPKP center linker F2-F3 TGSQKP replaced by TGLPKPKP (artificial); experiment: ELONA; conditions: normalized ELISA score
[7] = system: ZFP7264 linker TSRPRPKP center linker F2-F3 TGSQKP replaced by TSRPRPKP (artificial); experiment: ELONA; conditions: normalized ELISA score
[8] = system: ZFP7264 linker LRQKDERP center linker F2-F3 TGSQKP replaced by LRQKDERP (artificial); experiment: ELONA; conditions: normalized ELISA score
[9] = system: ZFP7264 linker TLPPCFRPKP center linker F2-F3 TGSQKP replaced by TLPPCFRPKP (artificial); experiment: ELONA; conditions: normalized ELISA score
[10] = system: ZFP7264 linker 1e center linker F2-F3 TGSQKP replaced by TVPRPTPPKP (artificial); experiment: ELONA; conditions: normalized ELISA score
[11] = system: ZFP7263 linker LRQKDERP (artificial)
[12] = system: ZFP7263 linker TGGGGSQKP (artificial)
[13] = system: ZFP7263 linker TPLCQRPMKQKP (artificial)
[14] = system: ZFP7263 linker TPRPPIPKP (artificial)
[15] = system: ZFP7263 linker TPNRCPPTKP (artificial)
[16] = system: ZFP7263 linker TGEGGKP (artificial)
[17] = system: ZFP7263 linker TQRPQIPPKP center linker F2-F3 TGSQKP replaced by TQRPQIPPKP (artificial); experiment: ELONA; conditions: normalized ELISA score
[18] = system: ZFP7263 (host, center linker TGSQKP) (artificial); experiment: ELONA; conditions: normalized ELISA score
[19] = system: ZFP7263 linker TYPRPLLAKP center linker F2-F3 TGSQKP replaced by TYPRPLLAKP (artificial); experiment: ELONA; conditions: normalized ELISA score
[20] = system: ZFN7263 linker TPRPPIPKP center linker F2-F3 TGSQKP replaced by TPRPPIPKP (artificial); experiment: cell_activity; conditions: normalized yeast MEL-1 score
[21] = system: ZFN7263 linker TPLCQRPMKQKP (artificial); experiment: cell_activity; conditions: yeast, paired with 7264 ZFN
[22] = system: ZFN7263 linker TGGGGSQKP center linker F2-F3 TGSQKP replaced by TGGGGSQKP (artificial); experiment: cell_activity; conditions: normalized yeast MEL-1 score
[23] = system: ZFN7263 linker TPNRCPPTKP (artificial); experiment: cell_activity; conditions: yeast, paired with 7264 ZFN
[24] = system: ZFN7263 linker TYPRPLLAKP (artificial); experiment: cell_activity; conditions: yeast, paired with 7264 ZFN
[25] = system: ZFN7263 (host) (artificial); experiment: cell_activity; conditions: yeast MEL-1 score, with invariant 7264 ZFN partner (reference)
[26] = system: ZFN7263 linker TQRPQIPPKP (artificial); experiment: cell_activity; conditions: yeast, paired with 7264 ZFN
[27] = system: ZFP8196 linker 1c center linker F2-F3 TGEKP replaced by THPRAPIPKP (artificial); experiment: ELONA; conditions: normalized ELISA score
[28] = system: ZFP8196 linker 1d center linker F2-F3 TGEKP replaced by TPNRRPAPKP (artificial); experiment: ELONA; conditions: normalized ELISA score
[29] = system: ZFP8196 linker 1f center linker F2-F3 TGEKP replaced by TYPRPIAAKP (artificial); experiment: ELONA; conditions: normalized ELISA score
[30] = system: ZFP8196 (host, center linker TGEKP) (artificial); experiment: ELONA; conditions: normalized ELISA score
[31] = system: ZFP8196 linker TCPRPPTRKP (artificial)
[32] = system: ZFP8196 linker TPDRPISTCKP (artificial)
[33] = system: ZFP8196 linker TPDAPKPKP (artificial)
[34] = system: ZFP8196 linker TPSHTPRPKP (artificial)
[35] = system: ZFP8196 linker TGEGGKP (artificial)
[36] = system: ZFP8196 linker TGGGGSQKP (artificial)
[37] = system: ZFP8196 linker LRQKDERP (artificial)
[38] = system: ZFP8196 linker TVSPAPCRSKP (artificial)
[39] = system: ZFP8196 linker TGYSIPRPKP (artificial)
[40] = system: ZFP8196 linker TPGLHRPKP (artificial)
[41] = system: ZFP8196 linker TSSPRSNAKP (artificial)
[42] = system: ZFP8196 linker TSPRLPAPKP (artificial)
[43] = system: ZFP8196 linker TEPRAKPPKP (artificial)

**Q.** Which binding signal ([1]; ELISA normalized to host on 0-bp gap target (reference)) does the source give for “TTAGTTAAAGCGGCTCCGAATATC (double strand) [7264 target 0-bp gap]” here?
**A.** The binding signal was 1.

**Q.** And the binding signal [2]?
**A.** The binding signal was 0.46.

**Q.** And the binding signal [3]?
**A.** The binding signal was 1.39.

**Q.** What about the binding signal [4] of the same sequence?
**A.** Its binding signal is 0.01.

**Q.** And the binding signal [5]?
**A.** The binding signal was 0.25.

**Q.** And the binding signal [6]?
**A.** Its binding signal is 0.14.

**Q.** And the binding signal [7]?
**A.** The binding signal was 0.18.

**Q.** What about the binding signal [8] of the same sequence?
**A.** The binding signal was 0.26.

**Q.** What about the binding signal [9] of the same sequence?
**A.** The binding signal was 0.36.

**Q.** And the binding signal [10]?
**A.** The binding signal was 0.16.

**Q.** “TTAGCCACTCTGACTGGAAGTGTATC (double strand) [7263 target gap AC]” was tested. Which binding signal (normalized ELISA) [11] did it give?
**A.** The binding signal (normalized ELISA) was 0.01.

**Q.** What about the binding signal (normalized ELISA) [12] of the same sequence?
**A.** Its binding signal (normalized ELISA) is 0.01.

**Q.** What about the binding signal (normalized ELISA) [13] of the same sequence?
**A.** Its binding signal (normalized ELISA) is 0.08.

**Q.** And the binding signal (normalized ELISA) [14]?
**A.** The binding signal (normalized ELISA) was 0.02.

**Q.** What about the binding signal (normalized ELISA) [15] of the same sequence?
**A.** Its binding signal (normalized ELISA) is 0.03.

**Q.** And the binding signal (normalized ELISA) [16]?
**A.** The binding signal (normalized ELISA) was 0.01.

**Q.** What about the binding signal [17] of the same sequence?
**A.** The binding signal was 0.03.

**Q.** And the binding signal [18]?
**A.** Its binding signal is 0.01.

**Q.** And the binding signal [19]?
**A.** The binding signal was 0.03.

**Q.** “ACTCTGTGGAAG (double strand) [7263 yeast half-site 0-bp gap]” was tested. Which activity [20] did it give?
**A.** Its activity is 0.04.

**Q.** And the activity (normalized MEL-1) [21]?
**A.** The activity (normalized MEL-1) was 0.04.

**Q.** What about the activity [22] of the same sequence?
**A.** The activity was 0.11.

**Q.** And the activity (normalized MEL-1) [23]?
**A.** The activity (normalized MEL-1) was 0.05.

**Q.** What about the activity (normalized MEL-1) [24] of the same sequence?
**A.** Its activity (normalized MEL-1) is 0.05.

**Q.** What about the activity [25] of the same sequence?
**A.** The activity was 1.

**Q.** What about the activity (normalized MEL-1) [26] of the same sequence?
**A.** Its activity (normalized MEL-1) is 0.04.

**Q.** With “TTAGTTAAAGCGTGCTCCGAATATC (double strand) [7264 target gap T]” as the sequence, how does the binding signal ([1]; normalized ELISA score) read?
**A.** The binding signal was 0.

**Q.** And the binding signal [2]?
**A.** The binding signal was 0.17.

**Q.** What about the binding signal [3] of the same sequence?
**A.** Its binding signal is 0.08.

**Q.** What about the binding signal [4] of the same sequence?
**A.** Its binding signal is 0.01.

**Q.** What about the binding signal [5] of the same sequence?
**A.** The binding signal was 1.36.

**Q.** What about the binding signal [6] of the same sequence?
**A.** Its binding signal is 0.86.

**Q.** And the binding signal [7]?
**A.** The binding signal was 2.07.

**Q.** And the binding signal [8]?
**A.** The binding signal was 0.1.

**Q.** What about the binding signal [9] of the same sequence?
**A.** Its binding signal is 2.72.

**Q.** What about the binding signal [10] of the same sequence?
**A.** Its binding signal is 2.55.

**Q.** Which binding signal [27] does the source give for “TTAGATAAACTGTCCAAAAGGCTATC (double strand) [8196 target gap TC]” here?
**A.** Its binding signal is 0.01.

**Q.** And the binding signal [28]?
**A.** The binding signal was 0.01.

**Q.** What about the binding signal [29] of the same sequence?
**A.** The binding signal was 0.01.

**Q.** And the binding signal [30]?
**A.** The binding signal was 0.

**Q.** What about the binding signal (normalized ELISA) [31] of the same sequence?
**A.** Its binding signal (normalized ELISA) is 0.01.

**Q.** What about the binding signal (normalized ELISA) [32] of the same sequence?
**A.** Its binding signal (normalized ELISA) is 0.03.

**Q.** What about the binding signal (normalized ELISA) [33] of the same sequence?
**A.** Its binding signal (normalized ELISA) is 0.01.

**Q.** What about the binding signal (normalized ELISA) [34] of the same sequence?
**A.** The binding signal (normalized ELISA) was 0.02.

**Q.** And the binding signal (normalized ELISA) [35]?
**A.** The binding signal (normalized ELISA) was 0.

**Q.** What about the binding signal (normalized ELISA) [36] of the same sequence?
**A.** Its binding signal (normalized ELISA) is 0.

**Q.** And the binding signal (normalized ELISA) [37]?
**A.** The binding signal (normalized ELISA) was 0.

**Q.** And the binding signal (normalized ELISA) [38]?
**A.** The binding signal (normalized ELISA) was 0.02.

**Q.** And the binding signal (normalized ELISA) [39]?
**A.** Its binding signal (normalized ELISA) is 0.01.

**Q.** What about the binding signal (normalized ELISA) [40] of the same sequence?
**A.** The binding signal (normalized ELISA) was 0.01.

**Q.** And the binding signal (normalized ELISA) [41]?
**A.** Its binding signal (normalized ELISA) is 0.01.

**Q.** What about the binding signal (normalized ELISA) [42] of the same sequence?
**A.** Its binding signal (normalized ELISA) is 0.01.

**Q.** What about the binding signal (normalized ELISA) [43] of the same sequence?
**A.** The binding signal (normalized ELISA) was 0.02.
